Measurements reported in patent US20040132093A1 (AVENTIS PHARMA S A, published 2004).

How the values were obtained:
[1] = target: T1, OBRs-YFP fusion protein (short form of the leptin receptor fused at its C-terminal end to YFP) (human); experiment: BRET in living cells, fusion proteins expressed in equimolar amounts
T1 construct: also called OB-R-YFP; acceptor fusion protein
Protocol: 48 hours after transfection, HeLa, COS and HEK 293 cells expressing OBR were detached and washed with PBS. 1-2×10⁵ cells were distributed into 96-well optical plates (Packard Instrument Company, Meriden, Conn.) in the presence or absence of ligands, at 25° C. Membranes prepared from cells expressing OBR were used for the measurements of BRET. The substrate, coelenterazine h (Molecular Probes, Eugene, Oreg.), was added at a final concentration of 5 μM and the reading was carried out with a Fusion™ fluoro/luminometer (Packard Instrument Company, Meriden, Conn.), which permits the sequential integration of the luminescence signals detected with two filters (Luc filter: 485+10 nm; YFP filter: 530±12.5 nm). The BRET ratio is defined as the difference in the emission at 530 nm/485 nm of the cotransfected Luc and YFP fusion proteins and the emission at 530 nm/485 nm of the Luc fusion protein alone. The results are expressed in milliBRET units (mBU), 1 mBRET unit corresponding to the value of the BRET ratio multiplied by 1 000. The following ligands were used to determine the specificity of the assay: recombinant human erythropoietin (EPO), insulin (Ins), lipopolysaccharide (LPS, Sigma Aldrich, St. Louis, USA), recombinant human trombopoietin (TPO), GM-CSF, interleukin 3 (IL3), interleukin 6 (IL6), prolactin (PRL), SCF, EGF and TNFα. […]

[2] = target: T2, protein from fusion between YFP and the insulin receptor (Boute et al., 2001) (UniProt P06213 28-1382); experiment: BRET in living cells coexpressing the fusion proteins
T2 construct: whole, on cells; Specificity control in BRET; also called insulin receptor-YFP; not shown: YFP

B1: OBRs-Luc fusion protein (short form of the leptin receptor fused at its C-terminal end to Renilla luciferase) (receptor)
chain: ASISARQEQKLISEEDLTRYPITPWRFKLSCMPPNSTYDYFLLPAGLSKNTSNSNGHYETAVEPKFNSSGTHFSNLSKTTFHCCFRSEQDRNCSLCADNIEGTTFVSTVNSLVFQQIDANWNIQCWLKGDLKLFICYVESLFKNLFRNYNYKVHLLYVLPEVLEDSPLVPQKGSFQMVHCNCSVHECCECLVPVPTAKLNDTLLMCLKITSGGVIFRSPLMSVQPINMVKPDPPLGLHMEITDDGNLKISWSSPPLVPFPLQYQVKYSENSTTVIREADKIVSATSLLVDSILPGSSYEVQVRGKRLDGPGIWSDWSTPRVFTTQDVIYFPPKILTSVGSNVSFHCIYKKENKIVPSKEIVWWMNLAEKIPQSQYDVVSDHVSKVTFFNLNETKPRGKFTYDAVYCCNEHECHHRYAELYVIDVNINISCETDGYLTKMTCRWSTSTIQSLAESTLQLRYHRSSLYCSDIPSIHPISEPKDCYLQSDGFYECIFQPIFLLSGYTMWIRINHSLGSLDSPPTCVLPDSVVKPLPPSSVKAEITINIGLLKISWEKPVFPENNLQFQIRYGLSGKEVQWKMYEVYDAKSKSVSLPVPDLCAVYAVQVRCKRLDGLGYWSNWSNPAYTVVMDIKVPMRGPEFWRIINGDTMKKEKNVTLLWKPLMKNDSLCSVQRYVINHHTSCNGTWSEDVGNHTKFTFLWTEQAHTVTVLAINSIGASVANFNLTFSWPMSKVNIVQSLSAYPLNSSCVIVSWILSPSDYKLMYFIIEWKNLNEDGEIKWLRISSSVKKYYIHDHFIPIEKYQFSLYPIFMEGVGKPKIINSFTQDDIEKHQSDAGLYVIVPVIISSSILLLGTLLISHQRMKKLFWEDVPNPKNCSWAQGLNFQKRTDILDPPARATMTSKVYDPEQRKRMITGPQWWARCKQMNVLDSFINYYDSEKHAENAVIFLHGNAASSYLWRHVVPHIEPVARCIIPDLIGMGKSGKSGNGSYRLLDHYKYLTAWFELLNLPKKIIFVGHDWGACLAFHYSYEHQDKIKAIVHAESVVDVIESWDEWPDIEEDIALIKSEEGEKMVLENNFFVETMLPSKIMRKLEPEEFAAYLEPFKEKGEVRRPTLSWPREIPLVKGGKPDVVQIVRNYNAYLRASDDLPKMFIESDPGFFSNAIVEGAKKFPNTEFVKVKGLHFSQEDAPDEMGKYIKSFVERVLKNEQ
notes: Expressed in COS, HeLa or HEK 293 cells; also assayed in membranes and extracts; also called OB-R-Luc; donor fusion protein
binding result [1]: binds
binding result [2]: no binding
